Data from patent publication US20110318349A1 (AbbVie / Abbott, published 2011).
Positions count from the first letter of the chain named. Each block holds one binder with its values, some of them ahead of it.

Assays:
huTWEAK = molecular target: T1, huTWEAK (human, UniProt O43508 93-249, limits assumed); experiment: cell-based or functional assay
T1 sequence (looked up): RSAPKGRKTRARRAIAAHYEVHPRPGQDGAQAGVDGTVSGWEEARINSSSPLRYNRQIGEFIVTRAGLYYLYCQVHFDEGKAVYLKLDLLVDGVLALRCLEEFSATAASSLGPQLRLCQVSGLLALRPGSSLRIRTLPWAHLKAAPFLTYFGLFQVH

muTNFα = molecular target: T2, muTNFα (mouse, UniProt P06804 80-235); experiment: cell-based or functional assay
T2 sequence (looked up): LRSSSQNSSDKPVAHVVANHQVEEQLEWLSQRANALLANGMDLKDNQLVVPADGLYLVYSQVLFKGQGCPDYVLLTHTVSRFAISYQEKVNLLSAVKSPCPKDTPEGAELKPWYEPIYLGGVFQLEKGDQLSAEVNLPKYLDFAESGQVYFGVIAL

[1] = molecular target: T3, FLAG tagged TWEAK (Recombinant Human TWEAK) (human, UniProt O43508 106-249, limits assumed); experiment: SPR (Biacore), FLAG tagged TWEAK captured on mouse anti-FLAG chip, DVD-Ig in solution; C-terminal TWEAK (seq. 2) domain
T3 construct: Captured on a mouse anti-FLAG biosensor chip in the Biacore assay of the anti-TWEAK antibodies and DVD-Igs; also called TWEAK/TNSF12; not shown: FLAG tag
T3 sequence (looked up): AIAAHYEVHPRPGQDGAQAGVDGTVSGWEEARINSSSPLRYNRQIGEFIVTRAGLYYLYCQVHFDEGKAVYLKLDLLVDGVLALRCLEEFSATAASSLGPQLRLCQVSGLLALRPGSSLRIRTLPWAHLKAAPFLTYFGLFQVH
Method: (§1) Binding of antibodies or DVD-Ig to a target antigen (for example, a purified recombinant target antigen) was determined by surface plasmon resonance-based measurements with a Biacore® T-100, T-200, or 3000 instrument (GE, New Jersey) using running HBS-EP (10 mM HEPES [pH 7.4], 150 mM NaCl, 3 mM EDTA, and 0.005% surfactant P20) at 25° C. All chemicals were obtained from GE (New Jersey) or otherwise from a different source as described in the text. For example, approximately 5000 RU of goat anti-human IgG, (Fcγ), fragment specific polyclonal antibody (Pierce Biotechnology Inc, Rockford, Ill.) diluted in 10 mM sodium acetate (pH 4.5) was directly immobilized across a CM5 research grade biosensor chip using a standard amine coupling kit according to manufacturer's instructions and procedures at 25 Unreacted moieties on the biosensor surface were blocked with ethanolamine Modified carboxymethyl dextran surface in flowcell 2,3, and 4 was used as a reaction surface. Modified carboxymethyl dextran surface with goat anti-human IgG in flow cell 1 was used as the reference surface. For kinetic analysis, rate equations derived from the 1:1 Langmuir binding model were fitted simultaneously to association and dissociation phases of all eight injections (using global fit analysis) with the use of Biaevaluation 4.0.1 software. Purified antibodies or DVD-Ig were diluted in HEPES-buffered saline for capture across goat anti-human IgG specific reaction surfaces. […] The association and dissociation rate constants, kₒₙ (M⁻¹s⁻¹) and koff (s⁻¹) were determined under a continuous flow rate of 500 min. […] Anti-TWEAK antibodies and DVD-Igs were evaluated by binding of the antibodies/DVD-Igs to the captured FLAG tagged TWEAK on a mouse anti FLAG biosensor chip. […]
(§2) The equilibrium dissociation constant (M) of the reaction between antibodies or DVD-Igs and the target antigen was then calculated from the kinetic rate constants by the following formula: KD=koff/kₒₙ. Binding was recorded as a function of time and kinetic rate constants are calculated.

[2] = molecular target: T4, Recombinant Human TNF-α/TNFSF1A (human, UniProt P01375 77-233); experiment: SPR (Biacore), DVD-Ig captured on goat anti-human IgG Fc chip, antigen in solution; N-terminal TNF domain
Method: (§3) Binding of antibodies or DVD-Ig to a target antigen (for example, a purified recombinant target antigen) was determined by surface plasmon resonance-based measurements with a Biacore® T-100, T-200, or 3000 instrument (GE, New Jersey) using running HBS-EP (10 mM HEPES [pH 7.4], 150 mM NaCl, 3 mM EDTA, and 0.005% surfactant P20) at 25° C. All chemicals were obtained from GE (New Jersey) or otherwise from a different source as described in the text. For example, approximately 5000 RU of goat anti-human IgG, (Fcγ), fragment specific polyclonal antibody (Pierce Biotechnology Inc, Rockford, Ill.) diluted in 10 mM sodium acetate (pH 4.5) was directly immobilized across a CM5 research grade biosensor chip using a standard amine coupling kit according to manufacturer's instructions and procedures at 25 Unreacted moieties on the biosensor surface were blocked with ethanolamine Modified carboxymethyl dextran surface in flowcell 2,3, and 4 was used as a reaction surface. Modified carboxymethyl dextran surface with goat anti-human IgG in flow cell 1 was used as the reference surface. For kinetic analysis, rate equations derived from the 1:1 Langmuir binding model were fitted simultaneously to association and dissociation phases of all eight injections (using global fit analysis) with the use of Biaevaluation 4.0.1 software. Purified antibodies or DVD-Ig were diluted in HEPES-buffered saline for capture across goat anti-human IgG specific reaction surfaces. Antibodies or DVD-Ig to be captured as a ligand (1 μg/ml) were injected over reaction matrices at a flow rate of 50 μl/min. The association and dissociation rate constants, kₒₙ (M⁻¹s⁻¹) and koff (s⁻¹) were determined under a continuous flow rate of 500 min. Rate constants were derived by making kinetic binding measurements at different antigen concentrations ranging from 2-200 nM. Anti-TWEAK antibodies and DVD-Igs were evaluated by binding of the antibodies/DVD-Igs to the captured FLAG tagged TWEAK on a mouse anti FLAG biosensor chip. The concentrations of the DVD-Igs/Antibodies tested were between 100-0.01 nM.
as §2

[3] = molecular target: T3, FLAG tagged TWEAK (Recombinant Human …); experiment: SPR (Biacore), FLAG tagged TWEAK captured on mouse anti-FLAG chip, antibody in solution
Method: as §3, §2

[4] = molecular target: T4, Recombinant Human TNF-α/TNFSF1A; experiment: SPR (Biacore), antibody captured on goat anti-human IgG Fc chip, antigen in solution
Method: as §1, §2

[5] = molecular target: T4, Recombinant Human TNF-α/TNFSF1A; experiment: SPR (Biacore), antibody captured on goat anti-human IgG Fc chip, antigen in solution (row printed a second time)
Method: Binding of antibodies or DVD-Ig to a target antigen (for example, a purified recombinant target antigen) was determined by surface plasmon resonance-based measurements with a Biacore® T-100, T-200, or 3000 instrument (GE, New Jersey) using running HBS-EP (10 mM HEPES [pH 7.4], 150 mM NaCl, 3 mM EDTA, and 0.005% surfactant P20) at 25° C. All chemicals were obtained from GE (New Jersey) or otherwise from a different source as described in the text. […] The association and dissociation rate constants, kₒₙ (M⁻¹s⁻¹) and koff (s⁻¹) were determined under a continuous flow rate of 500 min. […] Anti-TWEAK antibodies and DVD-Igs were evaluated by binding of the antibodies/DVD-Igs to the captured FLAG tagged TWEAK on a mouse anti FLAG biosensor chip. […]
as §2

T4 sequence (P01375 77-233 limits assumed): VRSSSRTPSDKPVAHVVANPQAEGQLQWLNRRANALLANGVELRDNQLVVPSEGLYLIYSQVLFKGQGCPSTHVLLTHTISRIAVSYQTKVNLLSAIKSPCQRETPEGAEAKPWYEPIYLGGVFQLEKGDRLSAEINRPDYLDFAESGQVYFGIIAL

B2: DVD1140 (bispecific antibody, human IgG1, kappa)
heavy: not shown
light: QIVLSQSPAILSASPGEKVTMTCRASSSVSYMHWFQQKPGSSPKPWIYATSNLASGVPARFSGSGSGTSYSLTISRVEAEDAATYYCQQWSSSPLTFGAGTKLELKRTVAAPDVVMTQSPLSLSVSLGDQASISCRSSQSLVSSKGNTYLHWYLQKPGQSPKFLIYKVSNRFSGVPDRFSGSGSGTDFTLKISRVAAEDLGVYFCSQSTHFPRTFGGGTTLEIKRTVAAPSVFIFPPSDEQLKSGTASVVCLLNNFYPREAKVQWKVDNALQSGNSQESVTEQDSKDSTYSLSSTLTLSKADYEKHKVYACEVTHQGLSSPVTKSFNRGEC
notes: also called DVD1140H/DVD1140L
C-terminal VD TWEAK Neutralization Assay EC50 nM (IL-8 in supernatant of A375 cells) (huTWEAK): 0.136 nM
N-terminal VD TNFα Neutralization Assay EC50 nM (L929 cell viability, WST-1) (muTNFα): 1.06 nM
Kd [1]: < 8.3 pM
koff [1]: < 1e-06 s⁻¹
kon [1]: 120000 M⁻¹ s⁻¹
Kd [2]: 0.062 nM
koff [2]: 0.00082 s⁻¹
kon [2]: 1.3e+07 M⁻¹ s⁻¹

B4: DVD1135 (bispecific antibody, human IgG1, kappa)
heavy: not shown
light: B2 light
C-terminal VD TWEAK Neutralization Assay EC50 nM (IL-8 in supernatant of A375 cells) (huTWEAK): 4.34 nM
N-terminal VD TNFα Neutralization Assay EC50 nM (L929 cell viability, WST-1) (muTNFα): 1.95 nM

B5: AB211 (antibody, human IgG1, kappa, V domains shown)
VH: EVQLVESGGGLVQPGGSLRLSCAASGFTFSRYAMSWVRQAPGKGLEWVAEISSGGSYPYYPDTVTGRFTISRDNAKNSLYLQMNSLRAEDTAVYYCARVLYYDYDGDRIEVMDYWGQGTLVTVSS
VL: DVVMTQSPLSLPVTPGEPASISCRSSQSLVSSKGNTYLHWYLQKPGQSPQFLIYKVSNRFSGVPDRFSGSGSGTDFTLKISRVEAEDVGVYFCSQSTHFPRTFGGGTKVEIKR
TWEAK Neutralization Assay EC50 nM (IL-8 in supernatant of A375 cells) (huTWEAK): 0.396 nM
Kd [3]: < 0.25 pM
koff [3]: 2.5e-06 s⁻¹
kon [3]: > 1e+07 M⁻¹ s⁻¹

B6: AB212 (antibody, human IgG1, kappa, V domains shown)
VH: EVQLVESGGGLVRPGGSLKLFCAASGFTFSRYAMSWVRQSPEKRLEWVAEISSGGSYPYYPDTVTGRFTISRDNAKNTLYLEMSSLKSEDTAMYYCARVLYYDYDGDRIEVMDYWGQGTAVIVSS
VL: B5 VL with P12S, T14S, P15L, E17D, P18Q, Q50K, E84A, V88L, K108T, V109L
Kd [3]: 1.8 pM
koff [3]: 2.6e-05 s⁻¹
kon [3]: 1.1e+07 M⁻¹ s⁻¹

B7: DVD1128 (bispecific antibody, human IgG1, kappa)
heavy: not shown
light: DVVMTQSPLSLPVTPGEPASISCRSSQSLVSSKGNTYLHWYLQKPGQSPQFLIYKVSNRFSGVPDRFSGSGSGTDFTLKISRVEAEDVGVYFCSQSTHFPRTFGGGTKVEIKRTVAAPQIVLSQSPAILSASPGEKVTMTCRASSSVSYMHWFQQKPGSSPKPWIYATSNLASGVPARFSGSGSGTSYSLTISRVEAEDAATYYCQQWSSSPLTFGAGTKLELKRTVAAPSVFIFPPSDEQLKSGTASVVCLLNNFYPREAKVQWKVDNALQSGNSQESVTEQDSKDSTYSLSSTLTLSKADYEKHKVYACEVTHQGLSSPVTKSFNRGEC
N-terminal VD TWEAK Neutralization Assay EC50 nM (IL-8 in supernatant of A375 cells) (huTWEAK): 0.462 nM

Continued, in another order:

C-terminal VD TWEAK Neutralization Assay EC50 nM (IL-8 in supernatant of A375 cells) (huTWEAK): 0.238 nM
B1: DVD1132 (bispecific antibody, human IgG1, kappa)
heavy: not shown
light: B2 light with S124P, S126T, L127P, D129E, Q130P, K162Q, A196E, L200V, T220K, L221V
N-terminal VD TNFα Neutralization Assay EC50 nM (L929 cell viability, WST-1) (muTNFα): 0.196 nM

Kd [2]: 0.059 nM
koff [2]: 0.00058 s⁻¹
kon [2]: 9.9e+06 M⁻¹ s⁻¹
B3: DVD1127 (bispecific antibody, human IgG1, kappa)
heavy: not shown
light: B2 light with S124P, S126T, L127P, D129E, Q130P, K162Q, A196E, L200V, T220K, L221V
notes: also called DVD1127H/DVD1127L
N-terminal VD TNFα Neutralization Assay EC50 nM (L929 cell viability, WST-1) (muTNFα): 0.703 nM

Kd [4]: 0.073 nM
koff [4]: 0.00041 s⁻¹
kon [4]: 5.6e+06 M⁻¹ s⁻¹
Kd [5]: 0.073 nM
koff [5]: 0.00041 s⁻¹
B8: AB210 (antibody, human IgG1, kappa, V domains shown)
VH: EFQLQQSGPELVKPGASVRISCKASGYSFTDYNMNWVKQSNGKSLEWVGVINPNYGSSTYNQKFKGKATLTVDQSSSTAYMQLNSLTSEDSAVYYCARKWGQLGRGFFDVWGTGTTVTVSS
VL: QIVLSQSPAILSASPGEKVTMTCRASSSVSYMHWFQQKPGSSPKPWIYATSNLASGVPARFSGSGSGTSYSLTISRVEAEDAATYYCQQWSSSPLTFGAGTKLELKR
notes: also called TNF parent antibody; muTNFα Parent Antibody
TNFα Neutralization Assay EC50 nM (L929 cell viability, WST-1) (muTNFα): 0.717 nM

C-terminal VD TWEAK Neutralization Assay EC50 nM (IL-8 in supernatant of A375 cells) (huTWEAK): 0.123 nM
B9: DVD1131 (bispecific antibody, human IgG1, kappa)
heavy: not shown
light: QIVLSQSPAILSASPGEKVTMTCRASSSVSYMHWFQQKPGSSPKPWIYATSNLASGVPARFSGSGSGTSYSLTISRVEAEDAATYYCQQWSSSPLTFGAGTKLELKRTVAAPSVFIFPPDVVMTQSPLSLPVTPGEPASISCRSSQSLVSSKGNTYLHWYLQKPGQSPQFLIYKVSNRFSGVPDRFSGSGSGTDFTLKISRVEAEDVGVYFCSQSTHFPRTFGGGTKVEIKRTVAAPSVFIFPPSDEQLKSGTASVVCLLNNFYPREAKVQWKVDNALQSGNSQESVTEQDSKDSTYSLSSTLTLSKADYEKHKVYACEVTHQGLSSPVTKSFNRGEC
